Experimental data published in article PMC6141813, “NagRBt Is a Pleiotropic and Dual Transcriptional Regulator in Bacillus thuringiensis”.

B1: crr (ptsA) dre probe (H) (dsDNA)
DNA 1: TTTTTTTGCCCAACTTGTCTAGAGGTCTTTACTACATTTT
DNA 2: AAAATGTAGTAAAGACCTCTAGACAAGTTGGGCAAAAAAA
B2: chiA dre probe (D) (dsDNA)
DNA 1: AACCAATCATCTAGACAACTATATAACACGAACGTTTTAC
DNA 2: GTAAAACGTTCGTGTTATATAGTTGTCTAGATGATTGGTT

Molecular target: NagRBt (formerly YvoABt) (Bacillus thuringiensis strain Bti75, UniProt A0A1T3UL85 1-243)
Experiment: EMSA; EMSA: 10 mM Tris-HCl pH 8.0, 1 mM MgCl2, 50 mM NaCl, 0.5 mM DTT, 0.5 mM EDTA, 5% glycerol, 30 C, 30 min; 0.2 uM probe; competition with 3.0 uM NagRBt, 400-fold
Conditions: protein: recombinant; tags: C-terminal His (pET-28a(+)); chain copies: 2; unlabeled (EB stain); blunt

| Binder | binding result |
| --- | --- |
| B1 | binds |
| B2 | binds |
